Patent publication US20250332297A1, “DLL3-SPECIFIC BINDING CONSTRUCTS AND THEIR USE IN RADIOTHERAPY” (MOLECULAR PARTNERS AG, priority 2024, published 2025)
Positions count from the first letter of the chain named.

Legend:
NCI-H82 tumors = experiment: Efficacy (tumor growth) in NCI-H82 tumor model; assay type: in vivo, mouse; details: Dunnett's multiple comparisons test, tumor volume in mm^3, NCI-H82, R2G2 mice
Description: To determine the efficacy of radio-labelled (Pb-212) DARPin (MAM279) conjugate in inhibiting the growth of tumors that express DLL3, different dose regimens (single or repeated dose) of the conjugate were tested in a relevant mouse tumor model (NCI-H82).
Animals were under observation daily and 3× per week tumors were measured by caliper. Animals were sacrificed when tumors reached 1500 to 2000 mm^3 or if termination criteria were met. The data were expressed as average+/−SEM of tumor volume in mm^3.
To determine the efficacy of more frequent repeat-dosing of radio-labelled (Pb-212) DARPin (MAM279) conjugate in inhibiting the growth of tumors that express DLL3, a weekly repeat-dosing regimen of the conjugate was tested in a relevant mouse tumor model (NCI-H82).
Corresponding injections of buffer only were done as control. The first weekly injection of radio-labeled molecules was done 14 days after xenografting the NCI-H82 cells. Animals were under observation daily and 3× per week tumors were measured by caliper. Animals were sacrificed when tumors reached 1500 to 2000 mm^3 or if termination criteria were met. The data were expressed as average+/−SEM of tumor volume in mm^3. Results are shown in FIGS. 20A to 20D and Table 23.

[1] = biological target: T1, Human DLL3 expressed on cells (HEK293T-hDLL3, NCI-H82, SHP-77, MC38-hDLL3) (human, UniProt Q9NYJ7 27-618); experiment: flow cytometry titration on HEK293T-hDLL3 cells, with HSA
T1 construct: also called DLL3 endogenously expressed on human cells
T1 sequence: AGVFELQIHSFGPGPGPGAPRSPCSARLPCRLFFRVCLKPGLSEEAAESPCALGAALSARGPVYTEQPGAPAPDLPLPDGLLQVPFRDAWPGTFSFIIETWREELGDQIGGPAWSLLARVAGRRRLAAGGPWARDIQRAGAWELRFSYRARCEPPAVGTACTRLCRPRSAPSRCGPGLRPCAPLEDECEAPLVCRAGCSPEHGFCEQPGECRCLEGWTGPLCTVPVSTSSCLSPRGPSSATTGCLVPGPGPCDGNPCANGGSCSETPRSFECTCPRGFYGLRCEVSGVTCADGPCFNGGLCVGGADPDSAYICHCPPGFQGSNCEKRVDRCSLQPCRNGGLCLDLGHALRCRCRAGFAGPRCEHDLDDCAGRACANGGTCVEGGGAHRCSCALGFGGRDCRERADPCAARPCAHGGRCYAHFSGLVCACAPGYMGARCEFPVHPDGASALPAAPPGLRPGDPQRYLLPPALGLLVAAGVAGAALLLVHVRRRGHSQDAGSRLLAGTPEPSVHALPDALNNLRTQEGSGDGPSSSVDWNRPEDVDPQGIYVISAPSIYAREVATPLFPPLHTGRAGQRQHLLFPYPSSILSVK
Description: (§1) Cell binding titration assays were performed for selected His-tagged single domain (1 D) and two domain (2D) designed ankyrin repeat proteins to determine binding to human DLL3 expressed on HEK293T-huDLL3 cells in absence and presence of human serum albumin. […] HEK293T-hDLL3 cells are HEK293T cells that were stably transfected to express human DLL3 on their surface.
(§2) In brief, 1×10⁵ cells/well were resuspended in 100 μl DARPin dilution (500 nM, 1:5 serial diluted) and incubated for 1 h at 4° C. Cells were washed twice with PBS and resuspended in 100 μl anti-DARPin antibody (rabbit anti-DARPin 1.4.8) and LIVE/DEAD fixable cell stain (1:1000, Thermo Fisher #L34957). This step was performed in absence and presence of […] Human Serum Albumin (CSL Behring #150570). After incubation and washing, cells were incubated with detection antibody for 30 minutes (Goat […] IgG (H+L), AF647, Thermo Fisher #21445). Cells were fixed (Paraformaldehyde Solution, LucernaChem) and acquired at Attune N×T (Thermo Life Technologies). Raw fcs files were exported and analyzed using FlowJo software. MFI values of live AF647-positive cells were exported from FlowJo and plotted using GraphPad Prism software.

[2] = biological target: T1, Human DLL3 expressed on cells …; experiment: flow cytometry titration on HEK293T-hDLL3 cells, without HSA
Description: as §1, §2

NCI-H82 tumor model = experiment: Biodistribution of radio-labelled DARPin conjugates in NCI-H82 tumor model; details: mouse, in vivo, iv, 0.01 mg/kg
Description: NCI-H82 tumor model. R2G2 mice were purchased from Envigo. All studies were conducted under the approval of the institutional IACUC committee. Animals were maintained under specific-pathogen-free (SPF) conditions with daily cycles of light and darkness (12 h/12 h), in line with ethical guidelines. No manipulations were performed during the first 5 days after arrival, to allow the animals to acclimatize to the new environment. All mice were monitored daily for assessment of physical condition and general well-being. NCI-H82 cells were purchased from ATCC (Catalog No. HTB-175). Solid xenografts were established by subcutaneous (SQ) injection of NCI-H82 cells in RPMI media mixed 1:1 with Corning® Matrigel® basement membrane matrix (GFR; Corning, Cat No 354230.). Cells were quantified using Countess cell counter. Each mouse was injected SQ with 5×10^6 NCI-H82 cells in 100 μL RPMI/GFR-Matrigel into the right flank of each mouse. Tumor volumes were estimated three times per week through calipering, according to the formula: volume=0.5×length×width^2 and grown until they reached 200-300 mm^3. Tumor-associated antigen level expressed in tumors, tumor vascularization profile and DLL3 soluble form in mouse serum was tested.
Biodistribution study. […] Radio-labeled (Pb-212) DARPin conjugates were then injected at 0.01 mg/kg (10 μCi DARPin conjugates) into the tail vein of R2G2 mice (females) xenografted subcutaneously (at age of about 7 weeks) with NCI-H82 cells (5 million cells, growth factor reduced Matrigel) and bearing tumors (5-10 mm in diameter). […] Biodistribution was monitored at 4 h and 24h post-injection. Mice were euthanized by CO2 inhalation and cervical dislocation. Blood, spleen, kidneys, liver and tumor were extracted, weighed and the radioactivity was determined with a γ-counter counter (such as Wizard^22470, Perkin Elmer). The data were expressed as the % injected dose/gram (% ID/g).
Radio-labeled (Pb-212) DARPin conjugates were then injected at 0.01 mg/kg (10 μCi DARPin conjugates) into the tail vein of R2G2 mice (females) xenografted subcutaneously (at age of about 7 weeks) with NCI-H82 cells (5 million cells, growth factor reduced Matrigel) and bearing tumors (5-10 mm in diameter). Biodistribution was monitored at 4 h and 24h post-injection. Mice were euthanized by CO2 inhalation and cervical dislocation. Kidneys and tumor were extracted, weighed and the radioactivity was determined with a γ-counter counter (such as Wizard^22470, Perkin Elmer). The data were expressed as the % injected dose/gram (% ID/g) and the tumor to kidney (T:K) ratio was determined.
Radio-labelled (Pb-212) DARPin conjugates were then injected at 0.01 mg/kg (10 μCi DARPin conjugates) (i) into the tail vein of R2G2 mice (females) xenografted subcutaneously (at age of about 7 weeks) with NCI-H82 cells (5 million cells, growth factor reduced Matrigel) and bearing tumors (5-10 mm in diameter), and (ii) into the tail vein of athymic nude mice (females) xenografted subcutaneously (at age of about 7 weeks) with hDLL3-MC38 cells (5 million cells, growth factor reduced Matrigel) and bearing tumors (5-10 mm in diameter). Biodistribution was monitored at 4 h and 24h post-injection. Mice were euthanized by CO2 inhalation and cervical dislocation. Blood, bladder, small intestine, colon, spleen, kidneys, liver, lung, heart, tail and tumor were extracted, weighed and the radioactivity was determined with a γ-counter (such as Wizard^22470, Perkin Elmer). The data were expressed as the % injected dose/gram (% ID/g).

B1: neg. control: negative control DARPin (SEQ ID NO: 26), DLL3-specific domain replaced with non-binding domain, DOTAM-conjugated, Pb-212 labelled (conjugate)
chain: GSDLGKKLLEAARAGQDDEVRELLKAGADVNAKDYFSHTPLHLAARNGHLKIVEVLLKAGADVNAKDFAGKTPLHLAADAGHLEIVEVLLKAGADVNAQDIFGKTPADIAADAGHEDIAEVLQKAAGSPTPTPTTPTPTPTTPTPTPTGSDLGKKLLEAARAGQDDEVRELLKAGADVNAKDKDGYTPLHLAAREGHLEIVEVLLKAGADVNAKDKDGYTPLHLAAREGHLEIVEVLLKAGADVNAQDKSGKTPADLAADAGHEDIAEVLQKAAGSGSC
modifications: DOTAM conjugate, Pb-212 label; Ankyrin repeat protein (control)
- Mean Diff. (NCI-H82 tumors; Buffer only vs. (4 × 10μCi, 1 wk)): −64.44

B2: MAM112 (single domain ankyrin repeat protein, His-tagged) (designed binder)
chain: DLGKKLLAAAADGQDDEVRELLQAGADVNAKDLFGYTPLHLAAWRGHLEIVEVLLEAGADVNAKDAAGETPLHLAAWFGHLEIVEVLLEAGADVNAQDVQGKTPADLAAKEGHEDIAEVLQQAA
notes: also called 1D DARPin; not shown: His-tag
- EC50 [1]: 4.6 nM
- EC50 [2]: 4.2 nM

B3: MAM120: Ankyrin repeat domain specific for DLL3 (SEQ ID NO: 4); single domain (1D) DARPin (protein)
chain: B2 chain with K4T, A8S, E69L, K102V
modifications: Ankyrin repeat domain specific for DLL3 (MAM120)
- Blood % ID/g (NCI-H82 tumor model; 4 h): 0.1 % ID/g
- Kidneys % ID/g (NCI-H82 tumor model; 4 h): 65.5 % ID/g
- Tumors % ID/g (NCI-H82 tumor model; 4 h): 2.6 % ID/g
- Blood % ID/g (NCI-H82 tumor model; 24 h): 0.1 % ID/g
- Kidneys % ID/g (NCI-H82 tumor model; 24 h): 47.3 % ID/g
- Tumors % ID/g (NCI-H82 tumor model; 24 h): 2.9 % ID/g

B4: MAM093 (single domain ankyrin repeat protein, His-tagged) (designed binder)
chain: B2 chain with D12Q, Q23K, D27N, E56K, E89K, V99L, Q122K
notes: as for B2
- EC50 [1]: 5.5 nM
- EC50 [2]: 4.9 nM

B5: MAM120 (single domain ankyrin repeat protein, His-tagged) (designed binder)
chain: B2 chain with K4T, A8S, E69L, K102V
notes: as for B2
- EC50 [1]: 8 nM
- EC50 [2]: 7 nM

B6: Rova conjugate: Rova antibody conjugated with chelator (DOTAM) and labeled with Pb-212, used as control molecule (conjugate, chains of the INN, looked up)
VH: QVQLVQSGAEVKKPGASVKVSCKASGYTFTNYGMNWVRQAPGQGLEWMGWINTYTGEPTYADDFKGRVTMTTDTSTSTAYMELRSLRSDDTAVYYCARIGDSSPSDYWGQGTLVTVSS
VL: EIVMTQSPATLSVSPGERATLSCKASQSVSNDVVWYQQKPGQAPRLLIYYASNRYTGIPARFSGSGSGTEFTLTISSLQSEDFAVYYCQQDYTSPWTFGQGTKLEIK
modifications: DOTAM chelator, 212Pb radiolabel
notes: Rova antibody conjugated with chelator (DOTAM) and labeled with Pb-212, used as control molecule
- Mean Diff. (NCI-H82 tumors; Buffer vs. conjugate (1 × 10μCi)): 119.6
- Mean Diff. (NCI-H82 tumors; Buffer vs. conjugate (4 × 10μCi, injections 2 weeks apart)): 256.3

B7: MAM088 (single domain ankyrin repeat protein, His-tagged) (designed binder)
chain: DLGKKLLAAAREGQDDEVRELLKAGADVNAKDIWGQTPLHIAAWFGHLEIVEVLLKAGADVNAKDQTGHTPLHLAAKFGHLEIVEVLLKAGADVNAQDLLGRTPADLAAEEGHEDIAEVLQKAA
notes: as for B2
- EC50 [1]: 5.1 nM
- EC50 [2]: 5 nM

B8: Non-binding DARPin control comprising SEQ ID NO: 21 (designed binder)
chain: DLGKKLLEAARAGQDDEVRELLKAGADVNAKDKDGYTPLHLAAREGHLEIVEVLLKAGADVNAKDKDGYTPLHLAAREGHLEIVEVLLKAGADVNAQDKSGKTPADLAADAGHEDIAEVLQKAA
notes: Negative control on HEK293T-hDLL3 cells
- binding result [2]: no binding (tested: 500 nM)
